# Measured values as given in US20250235548A1 (Zymeworks, published 2025).
# Tests used:
# [1] = molecular target: T1, human sodium-dependent phosphate transporter 2B (NaPi2b) (human, UniProt O95436 1-690); experiment: flow cytometry, IGROV-1, HCC-78 and H441 cells
# T1 construct: also called hNaPi2b; Hu NaPi2b
# T1 sequence: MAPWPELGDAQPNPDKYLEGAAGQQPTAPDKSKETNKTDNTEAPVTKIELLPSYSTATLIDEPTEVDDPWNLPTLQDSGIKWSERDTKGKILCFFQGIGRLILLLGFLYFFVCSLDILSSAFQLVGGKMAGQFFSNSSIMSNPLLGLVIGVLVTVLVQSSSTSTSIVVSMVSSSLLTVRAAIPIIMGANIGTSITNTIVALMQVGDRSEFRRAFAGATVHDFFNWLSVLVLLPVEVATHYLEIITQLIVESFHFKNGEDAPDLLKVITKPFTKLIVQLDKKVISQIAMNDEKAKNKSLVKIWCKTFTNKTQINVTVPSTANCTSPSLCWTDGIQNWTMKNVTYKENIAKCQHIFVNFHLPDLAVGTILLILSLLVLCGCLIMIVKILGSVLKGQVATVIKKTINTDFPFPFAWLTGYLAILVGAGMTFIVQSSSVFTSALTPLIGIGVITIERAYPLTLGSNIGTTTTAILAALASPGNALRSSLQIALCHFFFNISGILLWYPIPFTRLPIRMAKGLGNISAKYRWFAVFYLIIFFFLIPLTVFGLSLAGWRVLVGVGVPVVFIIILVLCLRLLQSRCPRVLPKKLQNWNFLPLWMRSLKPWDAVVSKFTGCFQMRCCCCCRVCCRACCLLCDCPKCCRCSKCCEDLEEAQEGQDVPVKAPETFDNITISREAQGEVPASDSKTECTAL
# [2] = molecular target: T1, human sodium-dependent phosphate …; experiment: flow cytometry on IGROV-1 cells (endogenous NaPi2b), 24 h at 4 C, anti-human IgG Fc AF647, APC-A GeoMean
# Method: Briefly, cells were seeded at 50,000 cells/well in conical-bottom 96-well plates and treated with test antibody for 24 hours at 4° C. to prevent internalization. […] Following incubation and washing, fluorescence was detected by flow cytometry on a BD LSRFortessa™ Cell Analyzer (BD Biosciences, Franklin Lake, NJ) with 1,000 minimum events collected per well.
# [3] = molecular target: T2, human sodium-dependent phosphate transporter 2B (NaPi2b) (human, UniProt O95436 1-690); experiment: flow cytometry on HEK293-6e cells transfected with human NaPi2b
# T2 construct: Multi-pass membrane transporter; It stood on HEK293-6e cells transfected with pTT5-huNaPi2b, or endogenously on the tumour cell lines IGROV-1, OVCAR-3, HCC-78, TOV-21G and NCI-H441; also called Hu NaPi2b; hNaPi2b
# T2 sequence: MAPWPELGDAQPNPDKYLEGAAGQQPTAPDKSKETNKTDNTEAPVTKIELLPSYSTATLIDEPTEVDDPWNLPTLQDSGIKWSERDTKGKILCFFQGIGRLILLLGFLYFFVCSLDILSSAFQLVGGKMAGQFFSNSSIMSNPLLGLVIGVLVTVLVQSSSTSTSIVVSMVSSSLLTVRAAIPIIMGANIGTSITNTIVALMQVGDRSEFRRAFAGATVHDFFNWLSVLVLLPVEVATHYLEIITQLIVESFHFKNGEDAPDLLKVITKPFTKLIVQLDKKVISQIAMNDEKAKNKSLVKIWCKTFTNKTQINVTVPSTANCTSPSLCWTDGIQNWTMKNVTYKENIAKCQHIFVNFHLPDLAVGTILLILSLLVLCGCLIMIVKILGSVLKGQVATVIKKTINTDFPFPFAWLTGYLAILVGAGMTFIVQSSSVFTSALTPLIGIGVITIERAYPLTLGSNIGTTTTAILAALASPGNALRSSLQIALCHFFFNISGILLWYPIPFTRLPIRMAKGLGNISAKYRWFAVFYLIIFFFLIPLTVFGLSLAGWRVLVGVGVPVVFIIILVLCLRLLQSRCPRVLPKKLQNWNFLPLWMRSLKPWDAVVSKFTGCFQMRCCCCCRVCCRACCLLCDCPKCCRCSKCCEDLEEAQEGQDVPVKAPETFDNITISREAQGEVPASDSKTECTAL
# Method: Following transfection, cells were seeded at 50,000 cells/well in conical-bottom 96-well plates and treated with test antibody or antibody-drug conjugate for 24 hours at 4° C. to prevent internalization. […] Following incubation and washing, fluorescence was detected by flow cytometry on a BD LSRFortessa™ Cell Analyzer (BD Biosciences, Franklin Lake, NJ) with 1,000 minimum events collected per well.
binder,measurement,setting,value
"v21995 (palivizumab), anti-RSV negative control antibody (antibody, human IgG1, kappa, V domains shown) VH: QVTLRESGPALVKPTQTLTLTCTFSGFSLSTSGMSVGWIRQPPGKALEWLADIWWDDKKDYNPSLKSRLTISKDTSKNQVVLKVTNMDPADTATYYCARSMITNWYFDVWGAGTTVTVSS VL: DIQMTQSPSTLSASVGDRVTITCKSQLSVGYMHWYQQKPGKAPKLLIYDTSKLASGVPSRFSGSGSGTEFTLTISSLQPDDFATYYCFQGSGYPFTFGGGTKLEIKR",binding result,[1],no binding
"v18992 (MX35)-DL2 antibody-drug conjugate (antibody, human IgG1, kappa, maleimide functionalized auristatin drug linker (DL2); sites and DAR not stated, also called MX35-DL2 ADC) heavy 1: GQVQLVQSGAEVVKPGASVKMSCKASGYTFTGYNIHWVKQAPGQGLEWIGAIYPGNGDTSYKQKFRGRATLTADTSTSTVYMELSSLRSEDSAVYYCARGETARATFAYWGQGTLVTVSSASTKGPSVFPLAPSSKSTSGGTAALGCLVKDYFPEPVTVSWNSGALTSGVHTFPAVLQSSGLYSLSSVVTVPSSSLGTQTYICNVNHKPSNTKVDKKVEPKSCDKTHTCPPCPAPELLGGPSVFLFPPKPKDTLMISRTPEVTCVVVDVSHEDPEVKFNWYVDGVEVHNAKTKPREEQYNSTYRVVSVLTVLHQDWLNGKEYKCKVSNKALPAPIEKTISKAKGQPREPQVYVYPPSRDELTKNQVSLTCLVKGFYPSDIAVEWESNGQPENNYKTTPPVLDSDGSFALVSKLTVDKSRWQQGNVFSCSVMHEALHNHYTQKSLSLSPG heavy 2: not shown light: GDIQMTQSPSSLSASVGDRVTITCSASQDIGNFLNWYQQKPGKTVKVLIYYTSSLYSGVPSRFSGSGSGTDYTLTISSLQPEDFATYYCQQYSKLPLTFGQGTKLELKRTVAAPSVFIFPPSDEQLKSGTASVVCLLNNFYPREAKVQWKVDNALQSGNSQESVTEQDSKDSTYSLSSTLTLSKADYEKHKVYACEVTHQGLSSPVTKSFNRGEC",EC50 (read off the curve),[2],~1 nM
"humanized anti-NaPi2b antibody variant v38591 (antibody, human IgG1, kappa, Human IgG1/kappa full-size antibody; It is identical to v29456 except that the heavy chains include a C-terminal lysine; also called v38591 (H1L2)) heavy: not shown light: DVQMTQSPSSLSASVGDRVTITCRASQDVYSYLNWYQQKPGKAVKLLIYYTSRLQSGVPSRFSGSGSGTDYTLTISSLQPEDFATYYCQQYNIFPWTFGQGTKLEIKRTVAAPSVFIFPPSDEQLKSGTASVVCLLNNFYPREAKVQWKVDNALQSGNSQESVTEQDSKDSTYSLSSTLTLSKADYEKHKVYACEVTHQGLSSPVTKSFNRGEC",Bmax,[3],65
